Experimental data as given in patent publication US20110263014.

Experiments:
[1] = biological target: in vitro-translated human Nanog (hNanog), Q9H9S0
[2] = biological target: T1, mouse Nanog (mNanog), Q80Z64
T1 chain: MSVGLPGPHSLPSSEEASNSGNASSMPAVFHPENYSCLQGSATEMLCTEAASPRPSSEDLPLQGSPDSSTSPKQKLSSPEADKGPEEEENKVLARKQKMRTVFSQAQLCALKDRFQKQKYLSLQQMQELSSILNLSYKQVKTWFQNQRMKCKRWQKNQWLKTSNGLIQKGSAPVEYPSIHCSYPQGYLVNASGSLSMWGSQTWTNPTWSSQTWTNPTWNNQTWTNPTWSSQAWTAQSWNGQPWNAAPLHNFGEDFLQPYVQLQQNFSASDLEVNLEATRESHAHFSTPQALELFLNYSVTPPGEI

in vitro-translated human Nanog (hNanog), Q9H9S0, sequence (Q9H9S0 whole entry): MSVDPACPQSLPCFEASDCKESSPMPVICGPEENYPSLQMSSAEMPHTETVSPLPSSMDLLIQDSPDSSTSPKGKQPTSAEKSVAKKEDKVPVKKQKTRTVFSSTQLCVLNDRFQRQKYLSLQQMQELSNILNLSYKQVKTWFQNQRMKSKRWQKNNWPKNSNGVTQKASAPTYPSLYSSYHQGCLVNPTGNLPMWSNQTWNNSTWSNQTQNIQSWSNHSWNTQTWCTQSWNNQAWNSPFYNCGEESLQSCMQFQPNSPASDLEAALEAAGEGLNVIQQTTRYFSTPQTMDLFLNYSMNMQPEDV

B1: recombinant active caspase-3 (protein)
chain: SGISLDNSYKMDYPEMGLCIIINNKNFHKSTGMTSRSGTDVDAANLRETFRNLKYEVRNKNDLTREEIVELMRDVSKEDHSKRSSFVCVLLSHGEEGIIFGTNGPVDLKKITNFFRGDRCRSLTGKPKLFIIQACRGTELDCGIETDSGVDDDMACHKIPVEADFLYAYSTAPGYYSWRNSKDGSWFIQSLCAMLKQYADKLEFMHILTRVNRKVATEFESFSFDATFHAKKQIPCIVSMLTKELYFYH
In the case of B1, the “in vitro caspase-3 cleavage assay” value (Oct4) is reported as “remained uncleaved (data not shown)”, the “in vitro caspase-3 cleavage assay” value (Sox2) is reported as “remained uncleaved (data not shown)” and the “in vitro caspase-3 cleavage assay” value [1] is reported as “Caspase-3 cleaved human (h) Nanog in vitro”. For the same protein, the “cleavage of immunoprecipitated mNanog by recombinant caspase” value [2] was “Only caspase-9 effectively cleaved mNanog into a 27 kDa fragment” and the “in vitro caspase-3 cleavage assay” value [2] was “very little or no cleavage of recombinant mNanog by caspase-3 was observed”.
